Tested on: K4 kissing-loop RNA reporter
Experiment: apparent KD of K4 kissing-loop reporter; higher = weaker reporter binding
Details: Eterna round: R107
Procedure: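 RNA-MaP round R107: designed RNA switches with theophylline, tryptophan, arginine or FMN aptamers are transcribed on-chip within common flanks. They are titrated with a labelled K4 kissing-loop RNA reporter in RNA-MaP buffer (100 mM Tris pH 7.5, 80 mM KCl, 4 mM MgCl2), without ligand or with the indicated ligand. Median apparent KD per design.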

[1] = input ligand: theophylline 20 uM
[2] = input ligand: tryptophan 2.4 mM
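Also: bound reporter read as fluorescence of individual clusters on recovered sequencing chips by microscopy, with normalized cluster intensities fitted with a binding model.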

Sequence	apparent KD of K4 kissing-loop reporter (input ligand: FMN 200 uM)	apparent KD of K4 kissing-loop reporter (input ligand: arginine 13.2 mM)	apparent KD of K4 kissing-loop reporter (input ligand: none)	apparent KD of K4 kissing-loop reporter [1]	apparent KD of K4 kissing-loop reporter [2]
UGUAUGGACUGAAGGAGCGGUAUAUAAACUGAGUGAUGUUCGGCAGAUAAAGGCGCAAGCCACCAGGUAGGUCGCAGUCCAUACU [KL-SSArg B2]	0.453 µM	0.207 µM	0.381 µM	0.39 µM	0.342 µM
UGUAUGUGAUUUGAUACCAGACCAGCUGGUGGAAUCUGAGUGAUGUUCAGGUAGGUUUGGGUCCCUUGGCAGCAAAUCGCAUACU [KL-SSTheoB27]	0.203 µM	0.145 µM	0.182 µM	0.181 µM	0.17 µM
UGUCAUUGGUCGGCCGCCACUAGAAGGUCAAAGACCAUGGAGUGAUGUUCUAAGACGAAAGUCACUAGGACCGGGACCGAUGACU [TrypBS 5 #SwitchBubble #K4Middle]	1.64 µM	0.689 µM	1.45 µM	0.918 µM	0.575 µM
UGUCAUUGGUCGGCCGCCACUCCAUAAAGAGUGAUGUUCUGAAAGACGGAUCGAAAGAUCUGUCGGAGGACCGGGACCGAUGACU [FiskerMod 3 - Jieux - Same State - Tryptophan B]	1.31 µM	0.665 µM	1.54 µM	0.896 µM	0.237 µM
UGUCAUUGGUCUGAUACCAGUUGGGACGAAUACGUCCAACUGGAGUGAUGUUCCUAAAACAACCCUUGGCAGCAGACCGAUGACU [TheoBS 13 #SwitchBubble 13 #StaticStem]	0.87 µM	0.782 µM	1.04 µM	0.638 µM	0.75 µM
UGUCGAGUGAUGUUCGAUGUGGUGCAUUCAGAGGAUAUAGGGUGGGCUAGAAGGCUGAAAAGUGCUUCGAGUGAUGUUCGAAGAU [Exclusion FMN A GF8]	0.0706 µM	0.117 µM	0.144 µM	0.132 µM	0.11 µM
UGUCUUUUUUUGAUGUUUUUUGUAUAAUGGCAGGAUAUCGUAGAGGCGAGAAGGGCUUUUAUGCGUUAUGAGUGAUGUUUGUAGG [vevvmullin]	0.321 µM	0.24 µM	0.302 µM	0.295 µM	0.22 µM
UGUGAGCUGUCGACAAAAGUCGACUAAAGCGAGGAUAUGACGAAAGUCAGAAGGCGUCAAUAAUGGAGUGAUGUUCCUGCUCACU [FmnA 9 G29]	0.306 µM	0.436 µM	0.596 µM	0.489 µM	0.406 µM
UGUGAUGAGUAGAGUGAUGUUUUGAAGGAUACCAGAGUGUUGUUAUUCCCUUGGCAGCUUGAGUGAUGUUUGAUGUUGUUGUAGU [zizmullin]	0.303 µM	0.213 µM	0.248 µM	0.246 µM	0.196 µM
UGUGGAGAAUAUGAUACCAGCAGUGAGAGAGAGGAAGUAUAGUGAUGUUAUAUGAGAGAAUGCCCUUGGCAGCAUAAGAAGAAGG [SSTheophylB.D]	0.216 µM	0.155 µM	0.17 µM	0.277 µM	0.186 µM
UGUGUACCGGGAAGGAGCGUGAAUGAGAAUGGAUAUAGUGAUGUUAUAUAUACGAACGAAUCGCAGGUAGGUCGCCCGGAUCCCU [SSArgB.Y]	0.418 µM	0.408 µM	0.432 µM	0.444 µM	0.345 µM
UGUGUUGUUUUGAUGUUUGGUGUUUGUUGGCAGGAUAUCGUAGAGGCGAGAAGGGCUUUGUUGCGGUAUGAGUGAUGUUUGUAGG [szzrmullin]	0.349 µM	0.174 µM	0.295 µM	0.244 µM	0.255 µM
UGUUAUGUAUCAGGAUAUUAGUGAUGUUUGUUUAUGUUAGUGAUGUUGAUAUUUGUUUUAUGUAUUUAAGAAGGGAUUGAGAAGU [ffcfxmullin]	0.0621 µM	0.0214 µM	0.0456 µM	0.0302 µM	0.0493 µM
UGUUUUUACUGAAGGAGCGGCAAUUGAUACGUAGAUAUAGUGAUGUUAUAUAAGAUAGAGAGCCAGGUAGGUCGCAGAGUGUUUC [ExArgB.aA]	0.25 µM	0.195 µM	0.194 µM	0.194 µM	0.172 µM
UUAAAAUAUAUAAAUAAUAAGGGAAUUGAUACCAGACAGAAUUCUGUCCCUUGGCAGCAGUGAUGUUGUUGCAAUUUAAAUAAUU [AK1 Exc Theophylline A]	0.104 µM	0.148 µM	0.112 µM	0.136 µM	0.0857 µM
UUAAUAAUUCAAGGAUAUGUUUUCUAUUUCGAGUGAUGUUCGGUAUUAAUAAAUUUAAUAGAUUAUACAGAAGGUGAUGGAUAGU [Cynwulf-mod#5]	0.108 µM	0.101 µM	0.0842 µM	0.0991 µM	0.0658 µM
